# Results taken from publication PMC5468090.
# Legend:
# Assay in all cases: SPR
# XRCC4-Ala;XLF-WT = conditions: 1 uM each; described as similar to WT-WT; EMSA: 10 mM HEPES pH 8, 75 mM KCl, 0.5 mM EDTA, 0.5 mM DTT, 5% glycerol, RT 30 min, 200 ng DNA/10 ul; SPR: 20 mM HEPES pH 8, 75 mM KCl, 10% glycerol, 1 mM DTT …
# XRCC4-Ala;XLF-Ala = conditions: 1 uM each; described as similar to WT-WT; EMSA: 10 mM HEPES pH 8, 75 mM KCl, 0.5 mM EDTA, 0.5 mM DTT, 5% glycerol, RT 30 min, 200 ng DNA/10 ul; SPR: 20 mM HEPES pH 8, 75 mM KCl, 10% glycerol, 1 mM DTT …
# XRCC4-Asp;XLF-Asp = conditions: 1 uM each; koff_fast 4-fold faster than WT-WT; EMSA: 10 mM HEPES pH 8, 75 mM KCl, 0.5 mM EDTA, 0.5 mM DTT, 5% glycerol, RT 30 min, 200 ng DNA/10 ul; SPR: 20 mM HEPES pH 8, 75 mM KCl, 10% glycerol, 1 mM DTT …
# XRCC4-WT;XLF-WT = conditions: 1 uM each; EMSA: 10 mM HEPES pH 8, 75 mM KCl, 0.5 mM EDTA, 0.5 mM DTT, 5% glycerol, RT 30 min, 200 ng DNA/10 ul; SPR: 20 mM HEPES pH 8, 75 mM KCl, 10% glycerol, 1 mM DTT …
# XRCC4-WT;XLF-Ala = conditions: 1 uM each; described as similar to WT-WT; EMSA: 10 mM HEPES pH 8, 75 mM KCl, 0.5 mM EDTA, 0.5 mM DTT, 5% glycerol, RT 30 min, 200 ng DNA/10 ul; SPR: 20 mM HEPES pH 8, 75 mM KCl, 10% glycerol, 1 mM DTT …
substance,measurement,setting,value
400 bp SPR DNA,binding signal (fold equilibrium affinity vs WT-WT),XRCC4-Ala;XLF-WT,1
same,binding signal (fold equilibrium affinity vs WT-WT),XRCC4-Ala;XLF-Ala,1
same,binding signal (fold equilibrium affinity vs WT-WT),XRCC4-Asp;XLF-Asp,0.25
same,binding signal (fold equilibrium affinity (reference)),XRCC4-WT;XLF-WT,1
same,binding signal (fold equilibrium affinity vs WT-WT),XRCC4-WT;XLF-Ala,1
